This note sets out measurements from patent US20200197483A1 (MOREHOUSE SCHOOL OF MEDICINE, published 2020).

One experiment deals with T1, Mortalin (UniProt P38646 47-679).
T1 construct: Endogenous protein pulled down from Jurkat cell lysate (a human T cell line); also called Glucose-regulated protein 75 (GRP75)
Put plainly: immunoprecipitation from Jurkat lysate, Western blot with anti-mortalin antibody.

Another experiment has as its target T2, E. coli DnaK protein (Escherichia coli, UniProt P0A6Y8 2-638).
T2 construct: Endogenous protein in E. coli lysate; also called heat shock protein 70 (Hsp70)
Put plainly: ANTI-FLAG M2 immunoprecipitation from E. coli lysate, Western blot with anti-DnaK antibody. In general terms: In western blotting, separated proteins are transferred to a membrane and probed.

T2 sequence (P0A6Y8 2-638 limits assumed): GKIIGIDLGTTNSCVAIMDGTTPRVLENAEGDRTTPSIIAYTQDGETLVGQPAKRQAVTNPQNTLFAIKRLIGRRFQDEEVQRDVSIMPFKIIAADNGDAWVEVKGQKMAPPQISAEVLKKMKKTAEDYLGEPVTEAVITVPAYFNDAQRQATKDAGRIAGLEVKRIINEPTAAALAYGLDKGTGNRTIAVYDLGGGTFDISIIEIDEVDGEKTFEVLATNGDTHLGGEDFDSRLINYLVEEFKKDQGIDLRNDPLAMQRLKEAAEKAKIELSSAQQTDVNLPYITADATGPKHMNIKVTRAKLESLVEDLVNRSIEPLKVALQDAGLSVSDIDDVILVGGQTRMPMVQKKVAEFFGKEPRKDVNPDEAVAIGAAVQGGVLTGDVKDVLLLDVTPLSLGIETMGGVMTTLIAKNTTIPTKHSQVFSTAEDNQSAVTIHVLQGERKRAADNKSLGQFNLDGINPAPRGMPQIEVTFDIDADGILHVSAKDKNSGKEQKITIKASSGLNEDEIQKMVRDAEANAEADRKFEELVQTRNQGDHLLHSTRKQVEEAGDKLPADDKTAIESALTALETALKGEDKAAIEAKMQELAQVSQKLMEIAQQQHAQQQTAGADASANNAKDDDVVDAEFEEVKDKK
T1 sequence (P38646 47-679 limits assumed): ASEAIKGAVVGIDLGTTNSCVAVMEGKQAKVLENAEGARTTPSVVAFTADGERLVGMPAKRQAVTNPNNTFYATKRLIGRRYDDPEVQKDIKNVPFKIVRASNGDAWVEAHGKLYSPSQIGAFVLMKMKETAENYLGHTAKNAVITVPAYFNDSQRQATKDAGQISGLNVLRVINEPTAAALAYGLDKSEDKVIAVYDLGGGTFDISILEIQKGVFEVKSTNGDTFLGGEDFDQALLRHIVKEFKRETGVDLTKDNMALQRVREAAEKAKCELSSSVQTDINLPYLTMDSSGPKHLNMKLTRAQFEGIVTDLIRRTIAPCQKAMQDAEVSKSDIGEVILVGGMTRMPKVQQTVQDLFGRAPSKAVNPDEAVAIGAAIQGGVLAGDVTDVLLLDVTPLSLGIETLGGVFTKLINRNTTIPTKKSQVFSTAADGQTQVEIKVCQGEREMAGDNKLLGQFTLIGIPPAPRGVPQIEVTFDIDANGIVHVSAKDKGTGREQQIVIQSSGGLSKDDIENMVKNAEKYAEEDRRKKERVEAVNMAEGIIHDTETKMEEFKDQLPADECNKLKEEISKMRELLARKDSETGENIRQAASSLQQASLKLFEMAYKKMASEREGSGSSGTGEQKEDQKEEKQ

B1: HIV-1 Nef SMRwt peptide (peptide)
peptide: VGFPVAAVGFPVDYKDDDDK
notes: Synthetic peptide with two SMR motifs and a C-terminal FLAG tag; also called SMRwt (wide-type) peptide; antagonist peptide
Turning to B1, the binding result with Mortalin and with E. coli DnaK protein was “binds” throughout.

B2: HIV-1 Nef SMRmut peptide (peptide)
peptide: AGFPVAAAGFPVDYKDDDDK
notes: Synthetic negative control peptide; the first valine of each VGFPV motif is changed to alanine; also called SMRmut (mutant) peptide; negative control peptide
In the case of B2, the binding result with Mortalin is “no binding”; with E. coli DnaK protein, “no binding (tested: 1 µg peptide with 1 mg E. coli lysate)”.
